According to article PMC5037330, “Large-Scale Movements of IF3 and tRNA during Bacterial Translation Initiation” (Cell, 2016):

Biological target: T1, IF3 Thermus thermophilus (Thermus thermophilus, UniProt Q5SKU2 1-171)
T1 construct: Translation initiation factor IF3 of Thermus thermophilus; residues 3 to 170 were modelled (N-terminal domain, helical linker, C-terminal domain); also called initiation factor 3; NTD; source: E. coli BL21(DE3), purified (same protocol as IF1: 65°C heat step, ion exchange, hydroxylapatite)
T1 sequence: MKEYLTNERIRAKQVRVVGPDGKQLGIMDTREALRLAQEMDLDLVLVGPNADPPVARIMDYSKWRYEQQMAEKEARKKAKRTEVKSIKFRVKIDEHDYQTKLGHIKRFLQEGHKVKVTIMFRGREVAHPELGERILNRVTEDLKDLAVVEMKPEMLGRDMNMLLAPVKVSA
Assay: cryo-EM structure; Sample 1 (without IF2): T. thermophilus 30S, IF1, IF3, mRNA and fMet-tRNA mixed 1:4:4:3:3, complex at 120 nM, 5 mM HEPES pH 7.5, 10 mM MgAc, 50 mM KCl, 10 mM NH4Cl, 6 mM 2-mercaptoethanol; put on grids without further purification; classes PIC-1A to PIC-4
Conditions: both partners purified

B1: IF1 Thermus thermophilus (natural protein)
chain: MAKEKDTIRTEGVVTEALPNATFRVKLDSGPEILAYISGKMRMHYIRILPGDRVVVEITPYDPTRGRIVYRK
notes: Translation initiation factor IF1 of Thermus thermophilus, expressed as in Carter et al., 2001; also called initiation factor 1; source: E. coli BL21(DE3), purified (65°C heat step, ion exchange, hydroxylapatite)
  binding result: binds
